Five molecules from ChEMBL document CHEMBL3826949, “Characterization of the action of tyrosinase on resorcinols” (Bioorg Med Chem, 2016) can be followed below.

Activity calls are given as the source filed them. No cut-off for these calls is given here.

For data set [1], the target named is T1, Tyrosinase (Agaricus bisporus, UniProt O42713).
T1 sequence (O42713 whole entry): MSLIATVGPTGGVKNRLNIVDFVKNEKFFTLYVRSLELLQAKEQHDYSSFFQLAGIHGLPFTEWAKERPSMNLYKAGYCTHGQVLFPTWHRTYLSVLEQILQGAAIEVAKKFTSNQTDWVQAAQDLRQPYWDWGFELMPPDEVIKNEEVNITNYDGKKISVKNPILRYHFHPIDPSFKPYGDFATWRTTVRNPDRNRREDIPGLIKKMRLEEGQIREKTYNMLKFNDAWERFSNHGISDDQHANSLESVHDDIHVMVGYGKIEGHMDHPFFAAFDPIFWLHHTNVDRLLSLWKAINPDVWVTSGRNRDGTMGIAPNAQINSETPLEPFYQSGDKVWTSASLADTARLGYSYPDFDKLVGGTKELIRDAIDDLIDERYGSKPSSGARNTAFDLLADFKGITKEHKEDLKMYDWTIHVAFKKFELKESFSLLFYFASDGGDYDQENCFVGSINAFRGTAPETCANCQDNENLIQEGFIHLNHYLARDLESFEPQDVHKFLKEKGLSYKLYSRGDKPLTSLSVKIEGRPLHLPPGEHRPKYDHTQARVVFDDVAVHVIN
Kind of data set: Inhibition of mushroom tyrosinase using L-tyrosine as substrate assessed as monophenolase activity by spectrophotometric analysis.

For data set [2], the target named is T1, Tyrosinase. Kind of data set: Inhibition of mushroom tyrosinase using L-dopa as substrate assessed as diphenolase activity by spectrophotometric analysis.
The target of data set [3] is T2, Tyrosinase (Agaricus bisporus) (UniProt O42713).
T2 sequence (whole entry): T1 sequence (O42713 whole entry)
The data set can be described thus: Activity of mushroom tyrosinase using TBC as substrate assessed as accumulation of p-quinone in presence of H2O2 spectrophotometric analysis.

For data set [4], the target named is T2, Tyrosinase (Agaricus bisporus). Kind of data set: Inactivation of mushroom tyrosinase using TBC as substrate assessed as reduction in p-quinone accumulation pre-incubated at 0.3 mM for shorter time duration during 0 to 500 secs by spectrophotometric analysis.
Data set [5] shares this target. The data set can be described thus: Inactivation of mushroom tyrosinase using TBC as substrate assessed as reduction in p-quinone accumulation pre-incubated at 0.3 mM for longer time duration during 0 to 500 secs by spectrophotometric analysis.
Data set [6] shares this target. The data set can be described thus: Substrate activity at mushroom tyrosinase using TBC as substrate assessed as increase in TBC oxidation at 0.05 to 0.50 mM by spectrophotometric analysis.
Data set [7] shares this target. Conditions: 30 uM.
Substrate in data set [8]: CCOc1ccc(O)cc1
Kind of data set: (§1) Substrate activity at mushroom tyrosinase assessed as Km for monophenolase activity in presence H2O2 by spectrophotometry based Michaelis-Menten plot analysis. Conditions: Agaricus bisporus.

Substrate in data set [9]: CCc1ccc(O)cc1O
The data set is described as §1. Conditions: Agaricus bisporus.

Substrate in data set [10]: COc1ccc(O)cc1
Described as §1. Conditions: Agaricus bisporus.

Substrate in data set [11]: Cc1c(O)cccc1O
The data set is described as §1. Conditions: Agaricus bisporus.

Substrate in data set [12]: Cc1ccc(O)cc1O
Described as §1. Conditions: Agaricus bisporus.

Substrate in data set [13]: N[C@@H](Cc1ccc(O)cc1)C(=O)O
The data set is described as §1. Conditions: Agaricus bisporus.

Substrate in data set [14]: Oc1ccc(O)cc1
The description is as §1. Conditions: Agaricus bisporus.

Substrate in data set [15]: Oc1cccc(O)c1
Described as §1. Conditions: Agaricus bisporus.

Substrate in data set [16]: Oc1ccccc1
The description is as §1. Conditions: Agaricus bisporus.

Substrate in data set [17]: CCOc1ccc(O)cc1
Kind of data set: (§2) Substrate activity at mushroom tyrosinase assessed as Kcat for monophenolase activity in presence H2O2 by spectrophotometry based Michaelis-Menten plot analysis. Conditions: Agaricus bisporus.

Substrate in data set [18]: CCc1ccc(O)cc1O
The description is as §2. Conditions: Agaricus bisporus.

Substrate in data set [19]: COc1ccc(O)cc1
Described as §2. Conditions: Agaricus bisporus.

Substrate in data set [20]: Cc1c(O)cccc1O
The data set is described as §2. Conditions: Agaricus bisporus.

Substrate in data set [21]: Cc1ccc(O)cc1O
The description is as §2. Conditions: Agaricus bisporus.

Substrate in data set [22]: N[C@@H](Cc1ccc(O)cc1)C(=O)O
Described as §2. Conditions: Agaricus bisporus.

Substrate in data set [23]: Oc1ccc(O)cc1
The description is as §2. Conditions: Agaricus bisporus.

Substrate in data set [24]: Oc1cccc(O)c1
The description is as §2. Conditions: Agaricus bisporus.

Substrate in data set [25]: Oc1ccccc1
Described as §2. Conditions: Agaricus bisporus.

Substrate in data set [26]: CCOc1ccc(O)cc1
Kind of data set: (§3) Substrate activity at mushroom tyrosinase assessed as Kcat/Km ratio for monophenolase activity in presence H2O2 by spectrophotometry based Michaelis-Menten plot analysis. Conditions: Agaricus bisporus.

Substrate in data set [27]: CCc1ccc(O)cc1O
Described as §3. Conditions: Agaricus bisporus.

Substrate in data set [28]: COc1ccc(O)cc1
Described as §3. Conditions: Agaricus bisporus.

Substrate in data set [29]: Cc1c(O)cccc1O
The description is as §3. Conditions: Agaricus bisporus.

Substrate in data set [30]: Cc1ccc(O)cc1O
The data set is described as §3. Conditions: Agaricus bisporus.

Substrate in data set [31]: N[C@@H](Cc1ccc(O)cc1)C(=O)O
The data set is described as §3. Conditions: Agaricus bisporus.

Substrate in data set [32]: Oc1ccc(O)cc1
The description is as §3. Conditions: Agaricus bisporus.

Substrate in data set [33]: Oc1cccc(O)c1
The description is as §3. Conditions: Agaricus bisporus.

Substrate in data set [34]: Oc1ccccc1
Described as §3. Conditions: Agaricus bisporus.

Turning to `Cc1ccc(O)cc1O`, the 50% inhibitory concentration (IC50) at Tyrosinase [1] came to 9.31 µM; at Tyrosinase [2], 3.3 µM. Further, the result in data set [3] was Active. In data set [4], the inhibition entry is “Active”. Also, the inhibition entry in data set [5] was “inactive”.
For the molecule `Cc1c(O)cccc1O`, the IC50 at Tyrosinase [1] came to 1420 µM; at Tyrosinase [2] it was 717 µM. Moreover, the result in [6] and in data set [3] was Active.
Regarding `CCc1ccc(O)cc1O`, the IC50 on Tyrosinase [1] was found to be 1.9 µM; at Tyrosinase [2] it was 1.1 µM. Besides, the result in data set [6] and in data set [3] was Active. Further, the inhibition result in data set [4] was “Active”. The inhibition entry in [5] and in [7] was “inactive” in each case.
`Oc1cccc(O)c1` [RESORCINOL]: the IC50 is 1130 µM on Tyrosinase [1] and 652 µM at Tyrosinase [2]. The outcome in data set [6] and in data set [3] was Active. The inhibition result in data set [4] is “Active”. Further, in data set [5], the inhibition entry was “inactive”.

B1: Tyrosinase (Agaricus bisporus), O42713 (protein)
chain: T1 sequence (O42713 whole entry)
With B1, the Km turned out to be 170 µM in data set [8]; 117 µM in data set [9]; 80 µM in data set [10]; 2700 µM in [11]; 203 µM in data set [12]; 210 µM in data set [13]. The values for the Km in data set [14], in [15] and in data set [16] were 920 µM, 460 µM and 700 µM, respectively. Moreover, the kcat is 132 s⁻¹ in data set [17]; 6 s⁻¹ in [18]; 184 s⁻¹ in data set [19]; 9.94 s⁻¹ in data set [20]; 7.73 s⁻¹ in data set [21]; 7.9 s⁻¹ in data set [22]. The values for the kcat in [23], in data set [24] and in data set [25] were 102 s⁻¹, 18.3 s⁻¹ and 12.7 s⁻¹, respectively. For the same molecule, the kcat/Km in data set [26] turned out to be 776000 M⁻¹ s⁻¹; in data set [27], 51300 M⁻¹ s⁻¹; in [28] it was 2.3e+06 M⁻¹ s⁻¹; in [29] it was 3700 M⁻¹ s⁻¹; in [30] it was 38100 M⁻¹ s⁻¹; in [31], 37600 M⁻¹ s⁻¹. Besides, the kcat/Km in [32] is 110000 M⁻¹ s⁻¹; in data set [33], 39900 M⁻¹ s⁻¹; in [34] it was 18100 M⁻¹ s⁻¹.
